{"source": "patent US20150225704", "target": "myc-tagged full-length palmitoyl acyl transferase zinc-finger DHHC type containing 17 (zD17) (UniProt Q8IUH5)", "sequence (Q8IUH5 whole entry)": "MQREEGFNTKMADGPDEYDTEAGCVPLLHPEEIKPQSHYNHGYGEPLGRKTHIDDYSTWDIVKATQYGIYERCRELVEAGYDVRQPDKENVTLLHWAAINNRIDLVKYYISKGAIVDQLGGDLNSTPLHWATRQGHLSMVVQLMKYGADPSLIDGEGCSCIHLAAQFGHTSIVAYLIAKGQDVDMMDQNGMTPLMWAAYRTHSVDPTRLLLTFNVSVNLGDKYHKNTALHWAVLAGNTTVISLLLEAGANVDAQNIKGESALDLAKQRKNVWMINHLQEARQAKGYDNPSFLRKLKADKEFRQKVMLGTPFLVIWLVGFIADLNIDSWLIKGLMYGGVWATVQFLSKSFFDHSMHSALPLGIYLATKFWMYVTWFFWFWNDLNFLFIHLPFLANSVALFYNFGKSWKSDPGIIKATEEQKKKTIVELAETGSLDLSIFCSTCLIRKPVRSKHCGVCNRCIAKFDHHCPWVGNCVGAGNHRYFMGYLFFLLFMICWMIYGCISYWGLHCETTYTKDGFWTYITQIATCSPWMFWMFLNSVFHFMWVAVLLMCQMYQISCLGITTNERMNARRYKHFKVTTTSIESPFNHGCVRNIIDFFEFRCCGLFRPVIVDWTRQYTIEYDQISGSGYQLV", "data": [{"substance": "FLAG-kiMKK7 (kinase-inactive MKK7)", "values": [{"measurement": "JNK3 phosphorylation", "result": "resulting in attenuated JNK3 phosphorylation"}]}]}
